# Laboratory results as given in article PMC7564666 (2020).
# B1: GST-LASP1 (full length LIM and SH3 Protein 1, residues 1–261) [human] / argonaute 2 (Ago2), endogenous [human (endogenous in MDA-MB-231 variants 231S and Bone-Un)] (parent complex)
# chain 1: MNPNCARCGKIVYPTEKVNCLDKFWHKACFHCETCKMTLNMKNYKGYEKKPYCNAHYPKQSFTMVADTPENLRLKQQSELQSQVRYKEEFEKNKGKGFSVVADTPELQRIKKTQDQISNIKYHEEFEKSRMGPSGGEGMEPERRDSQDGSSYRRPLEQQQPHHIPTSAPVYQQPQQQPVAQSYGGYKEPAAPVSIQRSAPGGGGKRYRAVYDYSAADEDEVSFQDGDTIVNVQQIDDGWMYGTVERTGDTGMLPANYVEAI
# chain 2: not shown
# Variants of: B1
# Test: GST pull-down, immunoblot; 1 mg of Bone-Un LASP1-KO total lysate; 1.5 nmol of each of the double-mutants; parent: 1
row,ratio to parent,Variant
1,0.9,"chain 1 S146D, chain 1 Y171D"
2,1.82,"chain 1 S146A, chain 1 Y171D"
3,1.29,"chain 1 S146A, chain 1 Y171F"

# Variants of: B1
# Test: GST pull-down with purified proteins (direct binding), immunoblot; 100 ng of purified recombinant Ago2; 1.5 nmol of purified LASP1 double mutants; high exposure blot; parent: 1
row,ratio to parent,Variant
1,0.58,"chain 1 S146D, chain 1 Y171D"
2,0.34,"chain 1 S146D, chain 1 Y171F"

# Variants of: B1
# Test: GST pull-down, immunoblot; 1 mg of Bone-Un LASP1 KO total lysate; 1.5 nmol of each LASP1 single-mutant protein; parent: 1
row,Variant,ratio to parent
1,chain 1 S146A,4.79
2,chain 1 S146D,3.23

# Other lines, results leading:
row,ratio to parent,Variant
1,0.27,chain 1 Y171F
2,5,chain 1 Y171D

# Variants of: B1
# Test: GST pull-down with purified proteins (direct binding), immunoblot; 100 ng of purified recombinant Ago2; 1.5 nmol of each purified single-mutant protein; high exposure blot; parent: 1
row,ratio to parent,Variant
1,0.39,chain 1 S146D
2,0.08,chain 1 Y171F
3,0.61,chain 1 Y171D

# Variants of: B1
# Test: GST pull-down with purified proteins (direct binding), immunoblot; 100 ng of purified recombinant Ago2; 1.5 nmol of purified LASP1 double mutants; low exposure blot; parent: 1
row,ratio to parent,Variant
1,3.98,"chain 1 S146A, chain 1 Y171D"
2,1.6,"chain 1 S146A, chain 1 Y171F"
